Experimental findings from patent US20210403584A1 (ARMAGEN, published 2021) are described below.

The target of test [1] is human insulin receptor extracellular domain (HIR ECD) (human) (UniProt P06213). In words: ELISA, HIR ECD plated; against the HIR Ab. Background: An ELISA detects its analyte on a solid surface through an enzyme-linked reagent.
Test [2] has as its target T1, human insulin receptor extracellular domain (HIR ECD) (human, UniProt P06213 28-956, limits assumed).
T1 construct: extracellular domain
In words: ELISA, recombinant HIR ECD plated, secondary antibody and alkaline phosphatase detection. As to the method: The potency of the CHO-derived fusion protein was assessed with the HIR ECD binding ELISA. The affinity of the fusion protein for the HIR extracellular domain (ECD) was determined with an ELISA. Recombinant HIR ECD was plated on Nunc-Maxisorb 96 well dishes and the binding of the HIR Ab, or the HIR Ab-GLB1 fusion protein, to the HIR ECD was detected with a secondary antibody, followed by binding with an alkaline phosphatase detector reagent. […] The MW of the HIR Ab is 150 kDa, and the MW of the HIR Ab-fusion protein is 334 kDa.

The molecule “GUSB-HIR Ab fusion protein (GUSB fused to the amino terminus of the HIR Ab heavy chain) (from UniProt P08236 23-633)” gave a binding activity lost in test [1] above 95%.

B1: chimeric HIR Ab (human insulin receptor antibody) (antibody, human IgG1, kappa, V domains shown)
VH: QVQLQQSGPELVKPGALVKISCKASGYTFTNYDIHWVKQRPGQGLEWIGWIYPGDGSTKYNEKFKGKATLTADKSSSTAYMHLSSLTSEKSAVYFCAREWAYWGQGTLVTVSA
VL: DIQMTQSPSSLSASLGERVSLTCRASQDIGGNLYWLQQGPDGTIKRLIYATSSLDSGVPKRFSGSRSGSDYSLTISSLESEDFVDYYCLQYSSSPWTFGGGTKMEIKR
notes: Chimeric antibody against the extracellular domain of the human insulin receptor; human IgG1/kappa constant regions; also called HIRMAb; HIR MAb
In the case of B1, in test [2], the EC50 is 0.037 µg/mL.

What is called EC50 is the midpoint of the concentration-response curve.
